# According to paper PMC9855569, “Construction of Bi-Enzyme Self-Assembly Clusters Based on SpyCatcher/SpyTag for the Efficient Biosynthesis of (R)-Ethyl 2-hydroxy-4-phenylbutyrate” (Biomolecules, 2023):
# Substrate: CCOC(=O)C(=O)CCc1ccccc1
# Test: purified protein
# Type: biochemical, Lodderomyces parapsilosis
# Settings: apparent constant, free enzymes (CpCR with GDH), NADPH co-substrate, pH 7.0, 30 °C, OPBE 10-50 mM
protein,measurement,value
"CpCR (Lodderomyces parapsilosis) (protein, full length, 6xHis tag, recombinant in E. coli BL21(DE3), 41 kDa; free (unassembled) enzyme, in the free bi-enzyme system with GDH) MTKAVPDKFQGFAVSDPKNWNRPKLASYERKQINPHDVVLKNEVCGLCYSDIHTLSAGWQPLQRDNLVVGHEIIGEVIAVGDEVTEFKVGDRVGIGAASSSCRSCQRCDSDNEQYCKQGAATYNSKDVRSNNYVTQGGYSSHSIADEKFVFAIPEDLPSSYGAPLMCAGITVFSPLIRNLGLDARGKNVGIIGIGGLGHLALQFANAMGANVTAFSRSSSKKEQAMKLGAHDFVATGEDKTWYKNYDDHFDFILNCASGIDGLNLSEYLSTLKVDKKFVSVGLPPSEDKFEVSPFTFLQQGASFGSSLLGSKTEVKEMLNLAAKHNVRPMIEEVPISEENCAKALDRCHAGDVRYRFVFTDFDKAFKA",Km,23.94 mM
same,kcat,1.76 s⁻¹
same,kcat/Km,74 M⁻¹ s⁻¹
